Molecular target: the molecule itself
Assay: non-reducing SDS-PAGE with western blot; insoluble fraction (final pellet after Triton X-100 extraction) of SN tissue from control, MPTP/probenecid and NSA-treated mice, resuspended by sonication in 2% SDS lysis buffer, loaded with non-reducing sample buffer; anti-MLKL blot

B1: mixed lineage kinase domain-like protein (natural protein, UniProt Q9D2Y4 1-472, looked up)
chain: MDKLGQIIKLGQLIYEQCEKMKYCRKQCQRLGNRVHGLLQPLQRLQAQGKKNLPDDITAALGRFDEVLKEANQQIEKFSKKSHIWKFVSVGNDKILFHEVNEKLRDVWEELLLLLQVYHWNTVSDVSQPASWQQEDRQDAEEDGNENMKVILMQLQISVEEINKTLKQCSLKPTQEIPQDLQIKEIPKEHLGPPWTKLKTSKMSTIYRGEYHRSPVTIKVFNNPQAESVGIVRFTFNDEIKTMKKFDSPNILRIFGICIDQTVKPPEFSIVMEYCELGTLRELLDREKDLTMSVRSLLVLRAARGLYRLHHSETLHRNISSSSFLVAGGYQVKLAGFELSKTQNSISRTAKSTKAERSSSTIYVSPERLKNPFCLYDIKAEIYSFGIVLWEIATGKIPFEGCDSKKIRELVAEDKKQEPVGQDCPELLREIINECRAHEPSQRPSVDGRSLSGRERILERLSAVEESTDKKV
notes: mixed lineage kinase domain-like protein (MLKL), mouse, endogenous in the substantia nigra of C57BL/6 mice; Seen as a tetramer band in the insoluble fraction (non-reducing sample buffer) and as an oligomer on an A11 blot; also called MLKL; source: endogenous, mouse substantia nigra tissue lysate
With B1 the “stoichiometry N” value was 4.
